Data: patent US20040228866A1, “Suppressor genes” (Ludwig Institute for Cancer Research, priority 2000, published 2004)

What was measured:
[1] = biological target: T1, p73α (Homo sapiens, UniProt O15350); test: Co-immunoprecipitation with p73α (in vitro translated; transfected H1299 and Saos-2 cells); type: binding; details: for interaction with p73α in vitro: in vitro translated proteins, FIGS. 12B and 12C; for interaction with p73α in vivo: transfected cells, FIGS. 13B and 13D
T1 construct: expressed in transfected cells; host or cells: H1299 and Saos-2; part of the results from in vitro translation
T1 sequence (O15350 1-636): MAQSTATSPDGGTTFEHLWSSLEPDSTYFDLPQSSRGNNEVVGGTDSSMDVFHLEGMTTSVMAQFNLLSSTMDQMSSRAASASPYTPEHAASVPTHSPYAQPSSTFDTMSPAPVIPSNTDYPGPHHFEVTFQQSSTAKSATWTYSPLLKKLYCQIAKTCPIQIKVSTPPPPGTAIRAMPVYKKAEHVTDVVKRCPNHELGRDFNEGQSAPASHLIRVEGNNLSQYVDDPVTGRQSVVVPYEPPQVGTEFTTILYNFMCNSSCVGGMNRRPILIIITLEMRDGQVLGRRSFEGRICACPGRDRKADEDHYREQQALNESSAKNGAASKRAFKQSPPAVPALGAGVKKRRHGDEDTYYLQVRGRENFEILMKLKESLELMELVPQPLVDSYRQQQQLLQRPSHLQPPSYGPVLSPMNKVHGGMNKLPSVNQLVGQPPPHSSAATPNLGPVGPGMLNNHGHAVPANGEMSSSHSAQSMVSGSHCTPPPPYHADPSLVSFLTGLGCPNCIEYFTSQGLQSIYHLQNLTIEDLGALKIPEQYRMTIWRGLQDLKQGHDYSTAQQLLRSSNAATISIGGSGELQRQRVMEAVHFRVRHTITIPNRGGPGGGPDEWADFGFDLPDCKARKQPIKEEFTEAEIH
Description: (§1) V5-tagged ASPP1 and ASPP2 proteins were in vitro translated with cold methionine using the TNT T7 Quick coupled Transcription/Translation System (Promega). Cell lysates were incubated at 30° C. for 1 hour and then immunoprecipitated with anti-V5 antibody on protein G agarose beads.
(§2) The agarose beads were added to the binding reactions and incubated on a rotating wheel at 4° C. for 16 hours. The beads were then washed with PBS. The bound proteins were released in SDS gel sample buffer and analysed by 10% SDS-polyacrylamide gel electrophoresis (PAGE). The gels were wet transferred on to Protran nitrocellulose membrane and the resulting blots were first incubated with primary antibody and subsequently with the appropriate secondary HRP conjugated antibody (Dako). The blot was exposed to hyperfilm following the use of ECL substrate solution (Amersham Life Science).
(§3) Cells were transfected with 1 μg of p63γ or p73α in the presence or absence of 10 μg of ASPP1 or ASPP2. Cell lysate (1 mg) was immunoprecipitated with an antiASPP1 or ASPP2 antibody (see Example 2 and 7). The immunoprecipitates were separated on an SDS gel and the presence of p63 or p73 on the immunoblots detected by mouse monoclonal antibodies 4A4 (Santa Cruz) and ER-15 (Neomarker) to p63 or p73, respectively. The presence of ASPP1 or ASPP2 was detected with antibodies YX.7 and DX5410, respectively.
(§4) In some methods, larger amounts of cell lysate (2 mg) were immunoprecipitated with rabbit antibodies ASPP1.88 or BP77 to ASPP1 and ASPP2, respectively. The expression of ASPP1, ASPP2, p63γ and p73α was detected as described above.

[2] = biological target: T2, p53 (Homo sapiens, UniProt P04637); test: Co-immunoprecipitation with p53 in transfected Saos-2 cells; type: binding
T2 construct: expressed in transfected cells
T2 sequence (P04637 whole entry): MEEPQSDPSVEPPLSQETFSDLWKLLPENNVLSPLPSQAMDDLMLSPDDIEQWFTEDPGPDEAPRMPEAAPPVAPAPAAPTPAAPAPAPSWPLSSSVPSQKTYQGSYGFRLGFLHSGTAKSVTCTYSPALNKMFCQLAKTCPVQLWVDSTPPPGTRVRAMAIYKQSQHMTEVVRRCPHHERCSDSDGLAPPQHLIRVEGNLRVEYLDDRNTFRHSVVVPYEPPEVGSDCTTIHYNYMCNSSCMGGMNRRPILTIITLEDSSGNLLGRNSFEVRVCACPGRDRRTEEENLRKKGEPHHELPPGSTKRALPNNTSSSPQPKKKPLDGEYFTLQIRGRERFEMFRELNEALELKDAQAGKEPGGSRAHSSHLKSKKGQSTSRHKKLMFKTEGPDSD
Description: The cells were lysed in NP40 lysis buffer and 1000 μg of lysate immunoprecipitated with antibodies to iASPP bound to Protein G beads.

[3] = biological target: T3, p63γ (Homo sapiens, UniProt Q9H3D4); test: Co-immunoprecipitation with p63γ (in vitro translated; transfected H1299 and Saos-2 cells); type: binding; details: for interaction with p63γ in vitro: in vitro translated proteins, FIGS. 12B and 12C; for interaction with p63γ in vivo: transfected cells, FIGS. 13A and 13C
T3 construct: expressed in transfected cells; host or cells: Saos-2
T3 sequence (Q9H3D4 1-487 isoform Q9H3D4-5): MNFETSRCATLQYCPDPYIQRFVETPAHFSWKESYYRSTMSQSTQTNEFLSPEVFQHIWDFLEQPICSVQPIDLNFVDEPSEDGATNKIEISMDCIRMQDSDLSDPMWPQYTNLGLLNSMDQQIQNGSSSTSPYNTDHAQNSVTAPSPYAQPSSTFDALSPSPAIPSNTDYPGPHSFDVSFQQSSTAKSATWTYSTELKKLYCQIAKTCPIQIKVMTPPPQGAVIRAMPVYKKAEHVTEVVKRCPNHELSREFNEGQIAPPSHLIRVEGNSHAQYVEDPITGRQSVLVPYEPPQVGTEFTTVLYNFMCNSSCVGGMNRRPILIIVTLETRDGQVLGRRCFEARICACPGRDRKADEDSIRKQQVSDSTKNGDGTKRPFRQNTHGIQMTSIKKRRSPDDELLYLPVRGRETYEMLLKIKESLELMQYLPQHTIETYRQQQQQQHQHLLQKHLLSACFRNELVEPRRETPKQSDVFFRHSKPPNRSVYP
Description: as §1, §2, §3, §4

[4] = biological target: T4, E2F1 (Homo sapiens, UniProt Q01094); test: Transient reporter assay of E2F1 transactivation function; type: cell-based; details: co-expression with E2F1, FIGS. 2C and 2D
T4 construct: expressed in transfected cells
T4 sequence (Q01094 whole entry, species assumed): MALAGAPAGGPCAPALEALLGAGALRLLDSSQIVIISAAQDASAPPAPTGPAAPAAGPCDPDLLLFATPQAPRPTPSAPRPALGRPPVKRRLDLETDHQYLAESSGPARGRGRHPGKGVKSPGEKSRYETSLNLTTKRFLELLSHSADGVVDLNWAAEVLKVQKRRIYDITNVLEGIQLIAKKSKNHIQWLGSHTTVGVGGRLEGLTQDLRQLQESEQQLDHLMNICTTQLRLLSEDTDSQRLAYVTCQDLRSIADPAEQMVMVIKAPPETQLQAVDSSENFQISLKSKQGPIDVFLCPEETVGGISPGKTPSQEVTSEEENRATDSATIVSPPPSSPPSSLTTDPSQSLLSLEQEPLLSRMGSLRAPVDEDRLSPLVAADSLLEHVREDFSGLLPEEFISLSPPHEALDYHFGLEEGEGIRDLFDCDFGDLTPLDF

Molecule	interaction with p73α in vitro [1]	interaction with p73α in vivo [1]	interaction with p53 by immunoprecipitation and western blot [2]	interaction with p63γ in vitro [3]	interaction with p63γ in vivo [3]	transactivation function of E2F1 on cyclin A, b-myb and synthetic promoter 3×wt [4]
ASPP2: full length 1128 amino acid protein, SEQ ID NO: 4 (protein, listed as Homo sapiens) MMPMFLTVYLSNNEQHFTEVPVTPETICRDVVDLCKEPGESDCHLAEVWCGSERPVADNERMFDVLQRFGSQRNEVRFFLRHERPPGRDIVSGPRSQDPSLKRNGVKVPGEYRRKENGVNSPRMDLTLAELQEMASRQQQQIEAQQQLLATKEQRLKFLKQQDQRQQQQVAEQEKLKRLKEIAENQEAKLKKVRALKGHVEQKRLSNGKLVEEIEQMNNLFQQKQRELVLAVSKVEELTRQLEMLKNGRIDSHHDNQSAVAELDRLYKELQLRNKLNQEQNAKLQQQRECLNKRNSEVAVMDKRVNELRDRLWKKKAALQQKENLPVSSDGNLPQQAASAPSRVAAVGPYIQSSTMPRMPSRPELLVKPALPDGSLVIQASEGPMKIQTLPNMRSGAASQTKGSKIHPVGPDWSPSNADLFPSQGSASVPQSTGNALDQVDDGEVPLREKEKKVRPFSMFDAVDQSNAPPSFGTLRKNQSSEDILRDAQVANKNVAKVPPPVPTKPKQINLPYFGQTNQPPSDIKPDGSSQQLSTVVPSMGTKPKPAGQQPRVLLSPSIPSVGQDQTLSPGSKQESPPAAAVRPFTPQPSKDTLLPPFRKPQTVAASSIYSMYTQQQAPGKNFQQAVQSALTKTHTRGPHFSSVYGKPVIAAAQNQQQHPENIYSNSQGKPGSPEPETEPVSSVQENHENERIPRPLSPTKLLPFLSNPYRNQSDADLEALRKKLSNAPRPLKKRSSITEPEGPNGPNIQKLLYQRTTIAAMETISVPSYPSKSASVTASSESPVEIQNPYLHVEPEKEVVSLVPESLSPEDVGNASTENSDMPAPSPGLDYEPEGVPDNSPNLQNNPEEPNPEAPHVLDVYLEEYPPYPPPPYPSGEPEGPGEDSVSMRPPEITGQVSLPPGKRTNLRKTGSERIAHGMRVKFNPLALLLDSSLEGEFDLVQRIIYEVDDPSLPNDEGITALHNAVCAGHTEIVKFLVQFGVNVNAADSDGWTPLHCAASCNNVQVCKFLVESGAAVFAMTYSDMQTAADKCEEMEEGYTQCSQFLYGVQEKMGIMNKGVIYALWDYEPQNDDELPMKEGDCMTIIHREDEDEIEWWWARLNDKEGYVPRNLLGLYPRIKPRQRSLA	co-immunoprecipitated	co-immunoprecipitated transfected p63γ and p73α	interact in vivo	co-immunoprecipitated	co-immunoprecipitated transfected p63γ and p73α	failed to stimulate
ASPP1: Apoptosis Stimulating Protein 1, protein of SEQ ID NO: 2, expressed from a transfected plasmid (protein, listed as Homo sapiens) MMPMILTVFLSNNEQILTEVPITPETTCRDVVEFCKEPGEGSCHLAEVWRGNERPIPFDHMMYEHLQIWGPRREEVKFFLRHEDSPTENSEQGGRQTQEQRTQRNVINVPGDKRTEYGVGNPRVELTLSELQDMAARQQQQIENQQQMLVAKEQRLHFLKQQERRQQQSISENEKLQKLKERVEAQENKLKKIRAMRGQVDYSKIMNGNLSAEIERFSAMFQEKKQEVQTAILRVDQLSQQLEDLKKGKLNGFQSYNGKLTGPAAVELKRLYQELQIRNQLNQEQNSKLQQQKELLNKRNMEVAMMDKRISELRERLYGKKIQLNRVNGTSSPQSPLSTSGRVAAVGPYIQVPSAGSFPVLGDPIKPQSLSIASNAAHGRSKSANDGNWPTLKQNSSSSVKPVQVAGADWKDPSVEGSVKQGTVSSQPVPFSALGPTEKPGIEIGKVPPPIPGVGKQLPPSYGTYPSPTPLGPGSTSSLERRKEGSLPRPSAGLPSRQRPTLLPATGSTPQPGSSQQIQQRISVPPSPTYPPAGPPAFPAGDSKPELPLTVAIRPFLADKGSRPQSPRKGPQTVNSSSIYSMYLQQATPPKNYQPAAHSALNKSVKAVYGKPVLPSGSTSPSPLPFLHGSLSTGTPQPQPPSESTEKEPEQDGPAAPADGSTVESLPRPLSPTKLTPIVHSPLRYQSDADLEALRRKLANAPRPLKKRSSITEPEGPGGPNIQKLLYQRFNTLAGGMEGTPFYQPSPSQDFMGTLADVDNGNTNANGNLEELPPAQPTAPLPAEPAPSSDANDNELPSPEPEELICPQTTHQTAEPAEDNNNNVATVPTTEQIPSPVAEAPSPGEEQVPPAPLPPASHPPATSTNKRTNLKKPNSERTGHGLRVRFNPLALLLDASLEGEFDLVQRIIYEVEDPSKPNDEGITPLHNAVCAGHHHIVKFLLDFGVNVNAADSDGWTPLHCAASCNSVHLCKQLVESGAAIFASTISDIETAADKCEEMEEGYIQCSQFLYGVQEKLGVMNKGVAYALWDYEAQNSDELSFHEGDALTILRRKDESETEWWWARLGDREGYVPKNLLGLYPRIKPRQRTLA	co-immunoprecipitated	co-immunoprecipitated transfected p63γ and p73α	–	co-immunoprecipitated	co-immunoprecipitated transfected p63γ and p73α	failed to stimulate
